Reference: patent US20230058519A1 (SHANGHAI CELL THERAPY GROUP, published 2023)

Assays:
BCMA-His antigen = target: T1, BCMA-His antigen (UniProt Q02223 1-54); test: SPR, BCMA-his coupled on CM5 chip, TCP as analyte, 1:1 fit
T1 construct: also called BMCA antigen
T1 sequence (looked up): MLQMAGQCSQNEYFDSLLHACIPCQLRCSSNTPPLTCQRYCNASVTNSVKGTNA
Protocol: First the binding affinity of the purified BCMA-TCPs against BMCA antigen was assessed by SPR. BCMA-his antigen was coupled onto a CM5 chip (GE Healthcare Life Sciences), and then a variety of anti-BCMA BsAbs were flowed at the flow rate of 10 uL/min with dissociation time of 900s. Binding kinetics were determined with a 1:1 fit model.

[1] = target: mesothelin (MSLN) expressed on cells (UniProt Q13421); test: flow cytometry on 293T-MSLN+ cells; unit taken from the axis 'Conc.(nM)'
BCMA expressed on cells = target: T2, BCMA expressed on cells (UniProt Q02223 1-184, limits assumed); test: flow cytometry on CHOK1-BCMA+ cells; unit taken from the axis 'Conc.(nM)'
T2 construct: whole, on cells; also called CHOK1-BCMA cell line; BCMA over-expression cell line
T2 sequence (looked up): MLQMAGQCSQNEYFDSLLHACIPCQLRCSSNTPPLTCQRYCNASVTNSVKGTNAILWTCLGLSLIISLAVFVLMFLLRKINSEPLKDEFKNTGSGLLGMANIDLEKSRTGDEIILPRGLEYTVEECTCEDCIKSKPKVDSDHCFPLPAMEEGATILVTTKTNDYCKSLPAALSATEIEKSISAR
Protocol: The binding bioactivity for mesothelin and BCMA over-expressing cells was evaluated by flow cytometry. Stable cell lines were harvested using 0.25% Trypsin.
About 5E5 cells were collected per sample, and the cells were resuspended in 100 μL/well tested antibodies with His-tag. Then the cells were incubated with anti-His-tag antibody (Genscript, China) and Streptavidin-PE (Biolegend, China). The incubation step of each step was performed at 4° C. in the dark for 1 hr, and then the cells were washed 2× with 200 μL PBS buffer. The washed cells were resuspended in 200 μL PBS buffer and the sample was analyzed by FACS.

[2] = target: mesothelin (MSLN) expressed on cells (UniProt Q13421); test: flow cytometry on HEK293T-MSLN cells, serial dilution
MSLN-His antigen [3] = target: T3, MSLN-His antigen (UniProt Q13421 296-580, limits assumed); test: SPR as in Example 2, MSLN His antigen
T3 construct: also called MSLN-His protein; MSLN antigen

[4] = target: mesothelin (MSLN) expressed on cells (UniProt Q13421); test: flow cytometry on 293T-MSLN-Full cells; unit taken from the axis 'Conc.(nM)'
CD19 expressed on cells = target: T4, CD19 expressed on cells (UniProt P15391 20-556, limits assumed); test: flow cytometry on CHO/K1-CD19 cells; unit taken from the axis 'Conc.(nM)'; the curve is still rising at the last point (MFI about 5000 at about 400 nM)
T4 construct: whole, on cells; also called CD19 over-expression cell line; CD19 over-expressing cells
T4 sequence (looked up): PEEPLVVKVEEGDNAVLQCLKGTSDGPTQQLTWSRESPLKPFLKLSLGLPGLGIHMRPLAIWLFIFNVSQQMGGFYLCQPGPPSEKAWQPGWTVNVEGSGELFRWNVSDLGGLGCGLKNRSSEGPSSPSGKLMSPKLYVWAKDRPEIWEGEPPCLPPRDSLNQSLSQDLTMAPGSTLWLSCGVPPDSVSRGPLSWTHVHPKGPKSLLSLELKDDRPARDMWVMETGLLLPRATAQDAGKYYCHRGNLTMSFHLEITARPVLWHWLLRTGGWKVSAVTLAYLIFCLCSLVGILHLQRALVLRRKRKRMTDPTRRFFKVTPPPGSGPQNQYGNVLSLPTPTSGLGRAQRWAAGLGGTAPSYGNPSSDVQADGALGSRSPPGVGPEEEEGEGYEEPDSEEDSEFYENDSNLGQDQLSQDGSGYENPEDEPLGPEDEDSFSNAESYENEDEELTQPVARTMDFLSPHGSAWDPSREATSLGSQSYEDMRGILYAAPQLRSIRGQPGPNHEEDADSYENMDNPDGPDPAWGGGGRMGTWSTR

MSLN-His antigen [5] = target: T3, MSLN-His antigen; test: SPR (Biacore), VHH-hFc captured on protein A chip, MSLN-His as analyte
Protocol: The antibody was expressed as a hFc fusion protein, named as M2339(VHH) with the procedure that was described in the patent publication WO2020176815A2 (hereby incorporated by reference in its entirety and for all purposes). The binding affinity of M2339(VHH) towards MSLN antigen was tested by surface plasmon resonance (SPR). First, M2339(VHH) was passed through the sensor chip with protein A immobilized in advance, and the antibody was captured by protein A. Then, five different concentrations of MSLN-His protein were used as the mobile phase, and the binding time and dissociation time were 30 min and 60 min, respectively. Biacore evaluation software 2.0 (GE) was used to analyze the on-rate (kₒₙ), off-rate (koff) and equilibrium constant (KD).

[6] = target: mesothelin (MSLN) expressed on cells (UniProt Q13421); test: flow cytometry on HEK293T-MSLN cells, serial dilution, anti-human IgG PE detection
MSLN I - Fc = target: T5, MSLN I - Fc (UniProt Q13421 296-390, limits assumed); test: SPR, MSLN domain-Fc captured on protein A chip, M2339 VHH-6his as analyte, 1:1 fit
T5 construct: domain: MSLN I; also called mesothelinI; not shown: human Fc
Protocol: (§1) Affinity was determined by SPR. Protein A chip was used to capture different antigens, various concentrations of M2339(VHH) were injected at a flow rate of 10 μl/min with an association time of 120 to 180 seconds and a dissociation time from 180 to 1200 seconds. Binding kinetics were determined using Biacore Evaluation software in a 1:1 fit model.

MSLN III - Fc = target: T6, MSLN III - Fc (UniProt Q13421 487-598, limits assumed); test: as above
T6 construct: domain: MSLN III; not shown: human Fc
Protocol: as §1

MSLN II + III - Fc = target: T7, MSLN II + III - Fc (Homo sapiens (Human), UniProt Q13421 391-598); test: as above
T7 construct: also called mesothelinII+III; mesothelinII+III domain; not shown: human Fc
Protocol: as §1

MSLN I + II - Fc = target: T8, MSLN I + II - Fc (UniProt Q13421 296-486, limits assumed); test: as above
T8 construct: domain: MSLN I + II; not shown: human Fc
Protocol: as §1

MSLN II - Fc = target: T9, MSLN II - Fc (UniProt Q13421 391-486, limits assumed); test: as above
T9 construct: domain: MSLN II; not shown: human Fc
Protocol: as §1

MSLN Full - Fc = target: T10, MSLN Full - Fc (UniProt Q13421 296-598, limits assumed); test: as above
T10 construct: domain: MSLN Full (mesothelin ECD); also called mesothelin-full; complete mesothelin polypeptide; not shown: human Fc
Protocol: as §1

T7 sequence (Q13421 other isoform, or with tags, fused parts or gaps limits assumed): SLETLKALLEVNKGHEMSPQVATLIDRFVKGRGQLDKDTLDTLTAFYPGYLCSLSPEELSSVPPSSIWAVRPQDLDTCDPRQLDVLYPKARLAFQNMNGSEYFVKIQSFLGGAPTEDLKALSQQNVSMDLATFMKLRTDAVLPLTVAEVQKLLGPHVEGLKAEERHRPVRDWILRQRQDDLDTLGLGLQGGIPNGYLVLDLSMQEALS
T8 sequence (Q13421 other isoform, or with tags, fused parts or gaps limits assumed): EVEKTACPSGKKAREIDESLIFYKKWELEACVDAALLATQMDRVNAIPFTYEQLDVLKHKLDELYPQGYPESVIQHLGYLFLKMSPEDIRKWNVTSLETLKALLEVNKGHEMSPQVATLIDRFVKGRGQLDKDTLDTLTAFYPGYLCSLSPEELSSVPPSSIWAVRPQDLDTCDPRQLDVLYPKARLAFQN
T9 sequence (Q13421 other isoform, or with tags, fused parts or gaps limits assumed): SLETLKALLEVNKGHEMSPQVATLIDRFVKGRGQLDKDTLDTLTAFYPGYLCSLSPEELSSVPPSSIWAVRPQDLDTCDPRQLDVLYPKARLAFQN
T6 sequence (Q13421 495-606 limits assumed): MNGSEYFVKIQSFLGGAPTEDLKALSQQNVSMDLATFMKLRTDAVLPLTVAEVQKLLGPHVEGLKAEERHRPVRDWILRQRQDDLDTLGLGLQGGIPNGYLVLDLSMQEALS
T3 sequence (Q13421 other isoform, or with tags, fused parts or gaps limits assumed): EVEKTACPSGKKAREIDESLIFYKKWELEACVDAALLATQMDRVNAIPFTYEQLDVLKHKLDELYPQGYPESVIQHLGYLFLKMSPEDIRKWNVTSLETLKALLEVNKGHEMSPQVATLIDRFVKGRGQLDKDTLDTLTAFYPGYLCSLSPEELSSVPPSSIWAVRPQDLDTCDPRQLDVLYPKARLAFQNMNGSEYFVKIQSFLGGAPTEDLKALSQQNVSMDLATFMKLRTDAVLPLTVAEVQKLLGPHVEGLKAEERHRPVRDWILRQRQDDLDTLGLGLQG
T10 sequence (Q13421 other isoform, or with tags, fused parts or gaps limits assumed): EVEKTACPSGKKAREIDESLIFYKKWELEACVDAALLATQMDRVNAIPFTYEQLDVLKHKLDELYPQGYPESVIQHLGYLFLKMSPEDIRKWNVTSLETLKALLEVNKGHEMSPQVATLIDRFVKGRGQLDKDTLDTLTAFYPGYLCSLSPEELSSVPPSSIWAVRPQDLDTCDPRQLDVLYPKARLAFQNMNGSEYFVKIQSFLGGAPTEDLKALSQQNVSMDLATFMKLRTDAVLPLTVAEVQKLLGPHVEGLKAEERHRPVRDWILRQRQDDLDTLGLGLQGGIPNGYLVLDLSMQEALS
T5 sequence (Q13421 296-390 limits assumed): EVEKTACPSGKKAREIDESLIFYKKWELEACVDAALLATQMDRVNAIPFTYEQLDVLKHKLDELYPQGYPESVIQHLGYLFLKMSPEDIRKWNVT

B1: TCP001-C (bispecific antibody)
chain: QLQLGASGGGLVQPGGSLRLSCALSGFTLRELDEFAIGWFRQAPGKEREGVSCISGTGGITHYADSVKGRFTISRDIAKTTVYLQMNSLNSEDTAVYYCAADERCTDRLIRPPTYWGQGTQVTVSSGGGGSGGGGSGGGGSQVQLVESGGGLVQPGGSLRLSCAASGSITSIYAIGWYRQAPGKLRELVAAITTSGNTFYRDSVKGRFTISRDNAKNTVSLQMNSLKSEDTAVYDCNGAPWGDHAPLVVSWDQGTQVTVSSGGGGSEQKLISEEDLGGGGSHHHHHH
notes: also called BCMA-TCP
- Kd (BCMA-His antigen): 0.587 nM
- koff (BCMA-His antigen): 0.000518 s⁻¹
- kon (BCMA-His antigen): 882000 M⁻¹ s⁻¹
- EC50 [1]: 13.4 nM
- EC50 (BCMA expressed on cells): 17.6 nM

B2: TCP-MC (VHH)
VHH: QVQLVESGGGLVQPGGSLRLSCAASGSITSIYAIGWYRQAPGKLRELVAAITTSGNTFYRDSVKGRFTISRDNAKNTVSLQMNSLKSEDTAVYDCNGAPWGDHAPLVVSWDQGTQVTVSS
notes: also called MC001C
- Kd (BCMA-His antigen): 0.138 nM
- koff (BCMA-His antigen): 0.000546 s⁻¹
- kon (BCMA-His antigen): 3.96e+06 M⁻¹ s⁻¹

B3: anti-MSLN-1444 VHH (Fc fusion, not shown: a dimerising Fc or GST)
chain: QVQVVESGGGFVQAGGSLRLSCAASTPIISIAYMGWYRQISEKERQLVATINSGGKTYYADSVKGRFTISRDNAKNTLYLQMNMLKPEDTGMYYCAASNKDYNDYDPDWGQGTQVTVSS
- EC50 (read off the curve) [2]: 10 nM
- Kd (MSLN-His antigen [3]): 2.1 nM
- koff (MSLN-His antigen [3]): 7.5e-05 s⁻¹
- kon (MSLN-His antigen [3]): 53700 M⁻¹ s⁻¹

B4: TCP011-P (bispecific antibody)
chain: QLQLGASGGGLVQPGGSLRLSCALSGFTLRELDEFAIGWFRQAPGKEREGVSCISGTGGITHYADSVKGRFTISRDIAKTTVYLQMNSLNSEDTAVYYCAADERCTDRLIRPPTYWGQGTQVTVSSGGGGSGGGGSGGGGSDIQMTQTTSSLSASLGDRVTISCRASQDISKYLNWYQQKPDGTVKLLIYHTSRLHSGVPSRFSGSGSGTDYSLTISNLEQEDIATYFCQQGNTLPYTFGGGTKLEITKAGGGGSGGGGSGGGGSEVKLQESGPGLVAPSQSLSVTCTVSGVSLPDYGVSWIRQPPRKGLEWLGVIWGSETTYYNSALKSRLTIIKDNSKSQVFLKMNSLQTDDTAIYYCAKHYYYGGSYAMDYWGQGTSVTVSSGGGGSEQKLISEEDLGGGGSHHHHHH
notes: also called CD19-TCP; anti-M-ICAP VHH (M2339) - 3xGGGGS linker - anti-CD19 scFv (FMC063) - Myc and HIS
- EC50 [4]: 17.1 nM
- EC50 (CD19 expressed on cells): 40.9 nM

B5: TCP-MD (VHH)
VHH: QLQLGASGGGLVQPGGSLRLSCALSGFTLRELDEFAIGWFRQAPGKEREGVSCISGTGGITHYADSVKGRFTISRDIAKTTVYLQMNSLNSEDTAVYYCAADERCTDRLIRPPTYWGQGTQVTVSS
- EC50 [1]: 10.5 nM

B6: M2339(VHH), expressed as a hFc fusion protein (Fc fusion)
chain: B5 VHH
notes: VHH fused to human Fc; also called M2339-hFc; M2339-IgG1; not shown: human Fc (hFc)
- Kd (MSLN-His antigen [5]): 0.264 nM
- koff (MSLN-His antigen [5]): 1.82e-05 s⁻¹
- kon (MSLN-His antigen [5]): 69000 M⁻¹ s⁻¹
- EC50 (read off the curve) [6]: 4 nM

B7: M2339 VHH-6his (VHH)
VHH: B5 VHH
notes: not shown: 6xHis tag
- Kd (MSLN I - Fc): 0.179 nM
- koff (MSLN I - Fc): 6.49e-05 s⁻¹
- kon (MSLN I - Fc): 363000 M⁻¹ s⁻¹
- Kd (MSLN III - Fc): 0.327 nM
- koff (MSLN III - Fc): 0.000185 s⁻¹
- kon (MSLN III - Fc): 566000 M⁻¹ s⁻¹
- Kd (MSLN II + III - Fc): 0.0432 nM
- koff (MSLN II + III - Fc): 1.96e-05 s⁻¹
- kon (MSLN II + III - Fc): 454000 M⁻¹ s⁻¹
- Kd (MSLN I + II - Fc): 0.366 nM
- koff (MSLN I + II - Fc): 0.000174 s⁻¹
- kon (MSLN I + II - Fc): 476000 M⁻¹ s⁻¹
- Kd (MSLN II - Fc): 0.999 nM
- koff (MSLN II - Fc): 0.000244 s⁻¹
- kon (MSLN II - Fc): 244000 M⁻¹ s⁻¹
- Kd (MSLN Full - Fc): 0.0165 nM
- koff (MSLN Full - Fc): 1.36e-05 s⁻¹
- kon (MSLN Full - Fc): 823000 M⁻¹ s⁻¹

B8: TCP001-P (bispecific antibody)
chain: QLQLGASGGGLVQPGGSLRLSCALSGFTLRELDEFAIGWFRQAPGKEREGVSCISGTGGITHYADSVKGRFTISRDIAKTTVYLQMNSLNSEDTAVYYCAADERCTDRLIRPPTYWGQGTQVTVSSGGGGSGGGGSGGGGSDIVLTQSPASLAMSLGERATISCRASESVSVIGAHLIHWYQQKPGQPPKLLIYLASNLETGVPARFSGSGSGTDFTLTISRVQAEDAAIYSCLQSRIFPRTFGQGTKLEIKGSTSGSGKPGSGEGSTKGQVQLVQSGSELKKPGESVKISCKASGYTFTDYSINWVKQAPGQGLKWMGWINTETREPAYAYDFRGRFVFSLDTSASTAYLQISSLKAEDTAVYFCALDYSYAMDYWGQGTLVTVSSGGGGSEQKLISEEDLGGGGSHHHHHH
notes: Positive control in TCP format
- Kd (BCMA-His antigen): 0.0151 nM
- koff (BCMA-His antigen): 1.25e-05 s⁻¹
- kon (BCMA-His antigen): 825000 M⁻¹ s⁻¹

B9: TCP003-C (bispecific antibody)
chain: QLQLGASGGGLVQPGGSLRLSCALSGFTLRELDEFAIGWFRQAPGKEREGVSCISGTGGITHYADSVKGRFTISRDIAKTTVYLQMNSLNSEDTAVYYCAADERCTDRLIRPPTYWGQGTQVTVSSGGGGSAAAGQPREPQVYTLPPSQEEMTKNQVSLTCLVKGFYPSDIAVEWESNGQPENNYKTTPPVLDSDGSFFLYSRLTVDKSRWQEGNVFSCSVMHEALHNHYTQKSLSLSLGKGGGGSGGGGSGGGGSQVQLVESGGGLVQPGGSLRLSCAASGSITSIYAIGWYRQAPGKLRELVAAITTSGNTFYRDSVKGRFTISRDNAKNTVSLQMNSLKSEDTAVYDCNGAPWGDHAPLVVSWDQGTQVTVSSGGGGSEQKLISEEDLGGGGSHHHHHH
notes: also called TCP0031-C (as misprinted); BCMA-TCP
- Kd (BCMA-His antigen): 7.04 nM
- koff (BCMA-His antigen): 0.000298 s⁻¹
- kon (BCMA-His antigen): 42300 M⁻¹ s⁻¹
- EC50 [1]: 4.32 nM
- EC50 (BCMA expressed on cells): 22.3 nM
